{
  "source": "paper PMC2943728",
  "molecular_target": "DNA polymerase beta (WT pol β) (UniProt P06746 1-335)",
  "experiment": "EMSA",
  "data": [
    {"binder": "45AG 1-nt gapped DNA (dsDNA, 5'-phosphate on downstream oligo and template) DNA 1: GCCTCGCAGCCGTCCAACCAAC DNA 2: CAACCTCGATCCAATGCCGTCC DNA 3: GGACGGCATTGGATCGAGGTTGAGTTGGTTGGACGGCTGCGAGGC", "values": [
      {"measurement": "Kd", "value": 78, "unit": "nM"}
    ]}
  ]
}
